Measured values reported in the supplement of paper PMC11316812.
± gives the standard deviation of the averaged measurements.

Tests used:
[1] = test system: MCF7; assay: percentage of EdU-negative (G0-arrested) nuclei per well, 72 h; higher = more G0 arrest; details: reference: sequence is the full UniProt precursor, the tested protein was the secreted form or ectodomain
[2] = test system: hTERT-HMEC; assay: as above; details: reference: sequence is the full UniProt precursor, the tested protein was the secreted form or ectodomain
[3] = protein concentration 0.0357143 µM
[4] = protein concentration 0.357143 µM
[5] = protein concentration 0.0225 µM
[6] = protein concentration 0.03125 µM
[7] = protein concentration 0.3125 µM
[8] = protein concentration 0.00975 µM
[9] = protein concentration 0.0975 µM
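Further: secreted proteins added to cultured cells, EdU pulse at the end, nuclei found by Hoechst imaging, EdU status from nuclear versus surrounding ring intensity ratio, PBS as neutral control.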

Sequence: MMVVLLGATTLVLVAVAPWVLSAAAGGKNLKSPQKVEVDIIDDNFILRWNRSDESVGNVTFSFDYQKTGMDNWIKLSGCQNITSTKCNFSSLKLNVYEEIKLRIRAEKENTSSWYEVDSFTPFRKAQIGPPEVHLEAEDKAIVIHISPGTKDSVMWALDGLSFTYSLVIWKNSSGVEERIENIYSRHKIYKLSPETTYCLKVKAALLTSWKIGVYSPVHCIKTTVENELPPPENIEVSVQNQNYVLKWDYTYANMTFQVQWLHAFLKRNPGNHLYKWKQIPDCENVKTTQCVFPQNVFQKGIYLLRVQASDGNNTSFWSEEIKFDTEIQAFLLPPVFNIRSLSDSFHIYIGAPKQSGNTPVIQDYPLIYEIIFWENTSNAERKIIEKKTDVTVPNLKPLTVYCVKARAHTMDEKLNKSSVFSDAVCEKTKPGNTSKIWLIVGICIALFALPFVIYAAKVFLRCINYVFFPSLKPSSSIDEYFSEQPLKNLLLSTSEEQIEKCFIIENISTIATVEETNQTDEDHKKYSSQTSQDSGNYSNEDESESKTSEELQQDFV
- percentage of EdU-negative [1, 3]: 23.4 ± 0.79%
- percentage of EdU-negative [1, 4]: 31.7 ± 1.5%
- percentage of EdU-negative [2, 3]: 4.55 ± 0.7%
- percentage of EdU-negative [2, 4]: 5.5 ± 0.82%

Sequence: MMWPMHTPLLLLTALMVAVAGSASAQSRTLAGGIHATDLNDKSVQCALDFAISEYNKVINKDEYYSRPLQVMAAYQQIVGGVNYYFNVKFGRTTCTKSQPNLDNCPFNDQPKLKEEEFCSFQINEVPWEDKISILNYKCRKV
- percentage of EdU-negative [1, 5]: 25.28 ± 0.24%
- percentage of EdU-negative ([1]; protein concentration 0.225 µM): 25.3 ± 2%
- percentage of EdU-negative [2, 5]: 4.35 ± 0.28%
- percentage of EdU-negative ([2]; protein concentration 0.225 µM): 6.17 ± 0.2%

Sequence: MNAFLLSALCLLGAWAALAGGVTVQDGNFSFSLESVKKLKDLQEPQEPRVGKLRNFAPIPGEPVVPILCSNPNFPEELKPLCKEPNAQEILQRLEEIAEDPGTCEICAYAACTGC
- percentage of EdU-negative [1, 5]: 27.03 ± 0.26%
- percentage of EdU-negative ([1]; protein concentration 0.225 µM): 24.3 ± 0.35%
- percentage of EdU-negative [2, 5]: 5.03 ± 0.081%
- percentage of EdU-negative ([2]; protein concentration 0.225 µM): 5.29 ± 0.21%

Sequence: MNCRELPLTLWVLISVSTAESCTSRPHITVVEGEPFYLKHCSCSLAHEIETTTKSWYKSSGSQEHVELNPRSSSRIALHDCVLEFWPVELNDTGSYFFQMKNYTQKWKLNVIRRNKHSCFTERQVTSKIVEVKKFFQITCENSYYQTLVNSTSLYKNCKKLLLENNKNPTIKKNAEFEDQGYYSCVHFLHHNGKLFNITKTFNITIVEDRSNIVPVLLGPKLNHVAVELGKNVRLNCSALLNEEDVIYWMFGEENGSDPNIHEEKEMRIMTPEGKWHASKVLRIENIGESNLNVLYNCTVASTGGTDTKSFILVRKADMADIPGHVFTRGMIIAVLILVAVVCLVTVCVIYRVDLVLFYRHLTRRDETLTDGKTYDAFVSYLKECRPENGEEHTFAVEILPRVLEKHFGYKLCIFERDVVPGGAVVDEIHSLIEKSRRLIIVLSKSYMSNEVRYELESGLHEALVERKIKIILIEFTPVTDFTFLPQSLKLLKSHRVLKWKADKSLSYNSRFWKNLLYLMPAKTVKPGRDEPEVLPVLSES
- percentage of EdU-negative ([1]; protein concentration 0.03 µM): 26.3 ± 1.8%
- percentage of EdU-negative ([1]; protein concentration 0.3 µM): 28.5 ± 0.78%
- percentage of EdU-negative ([2]; protein concentration 0.03 µM): 4.552 ± 0.028%
- percentage of EdU-negative ([2]; protein concentration 0.3 µM): 15.3 ± 3%

Sequence: MNCVCRLVLVVLSLWPDTAVAPGPPPGPPRVSPDPRAELDSTVLLTRSLLADTRQLAAQLRDKFPADGDHNLDSLPTLAMSAGALGALQLPGVLTRLRADLLSYLRHVQWLRRAGGSSLKTLEPELGTLQARLDRLLRRLQLLMSRLALPQPPPDPPAPPLAPPSSAWGGIRAAHAILGGLHLTLDWAVRGLLLLKTRL
- percentage of EdU-negative [1, 6]: 26.7 ± 0.82%
- percentage of EdU-negative [1, 7]: 25.4 ± 0.86%
- percentage of EdU-negative [2, 6]: 4.51 ± 0.15%
- percentage of EdU-negative [2, 7]: 6.32 ± 0.64%

Sequence: MNGFASLLRRNQFILLVLFLLQIQSLGLDIDSRPTAEVCATHTISPGPKGDDGEKGDPGEEGKHGKVGRMGPKGIKGELGDMGDQGNIGKTGPIGKKGDKGEKGLLGIPGEKGKAGTVCDCGRYRKFVGQLDISIARLKTSMKFVKNVIAGIRETEEKFYYIVQEEKNYRESLTHCRIRGGMLAMPKDEAANTLIADYVAKSGFFRVFIGVNDLEREGQYMFTDNTPLQNYSNWNEGEPSDPYGHEDCVEMLSSGRWNDTECHLTMYFVCEFIKKKK [Q9Y6Z7]
- percentage of EdU-negative [1, 5]: 24.36 ± 0.1%
- percentage of EdU-negative ([1]; protein concentration 0.225 µM): 29.1 ± 0.55%
- percentage of EdU-negative [2, 5]: 5.319 ± 0.012%
- percentage of EdU-negative ([2]; protein concentration 0.225 µM): 7.17 ± 1.1%

Sequence: MNLAISIALLLTVLQVSRGQKVTSLTACLVDQSLRLDCRHENTSSSPIQYEFSLTRETKKHVLFGTVGVPEHTYRSRTNFTSKYNMKVLYLSAFTSKDEGTYTCALHHSGHSPPISSQNVTVLRDKLVKCEGISLLAQNTSWLLLLLLSLSLLQATDFMSL
- percentage of EdU-negative [1, 5]: 27.7 ± 0.2%
- percentage of EdU-negative ([1]; protein concentration 0.225 µM): 26.6 ± 1.3%
- percentage of EdU-negative [2, 5]: 4.527 ± 0.039%
- percentage of EdU-negative ([2]; protein concentration 0.225 µM): 6.24 ± 0.86%

Sequence: MNLWLLACLVAGFLGAWAPAVHTQGVFEDCCLAYHYPIGWAVLRRAWTYRIQEVSGSCNLPAAIFYLPKRHRKVCGNPKSREVQRAMKLLDARNKVFAKLHHNTQTFQAGPHAVKKLSSGNSKLSSSKFSNPISSSKRNVSLLISANSGL
- percentage of EdU-negative [1, 8]: 24.3 ± 1.7%
- percentage of EdU-negative [1, 9]: 25.01 ± 0.22%
- percentage of EdU-negative [2, 8]: 4.38 ± 0.21%
- percentage of EdU-negative [2, 9]: 5.5688 ± 0.0047%
